Laboratory results from PMC4743851.

Experiments:
[1] = target: Syntaxin-1A (endogenous, INS-1 832/13 cells) (rat (endogenous in INS-1 832/13)) (UniProt P32851); test: co-IP; IP with 2 μg Syn-3 or Syn-1A antibody from 1 mg INS-1 832/13 lysate; cells at basal 0.8 mM glucose or stimulated with 16.7 mM glucose plus 10 nM GLP-1 for 30 min; blots quantified as percent recovery of total lysate input
[2] = target: Syntaxin-3 (endogenous, INS-1 832/13 cells) (rat (endogenous in INS-1 832/13)) (UniProt Q08849); test: as above
Syntaxin-3 (endogenous, INS-1 832/13 cells) (rat (endogenous in INS-1 832/13)), sequence (Q08849 whole entry, the tested form may be a part): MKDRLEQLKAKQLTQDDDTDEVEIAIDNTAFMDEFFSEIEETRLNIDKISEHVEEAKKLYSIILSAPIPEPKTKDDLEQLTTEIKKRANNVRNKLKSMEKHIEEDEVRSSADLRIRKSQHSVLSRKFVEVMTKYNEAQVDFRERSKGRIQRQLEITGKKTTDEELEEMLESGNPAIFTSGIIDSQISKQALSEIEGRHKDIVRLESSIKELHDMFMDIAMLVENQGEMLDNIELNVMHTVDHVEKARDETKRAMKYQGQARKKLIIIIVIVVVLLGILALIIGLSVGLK

[3] = target: GST-Syn-1A (cytoplasmic domain a.a. 1–265) (UniProt P32851); test: pull-down; GST-Syn-1A (1-265) or GST-Syn-3 (1-263) on glutathione agarose beads incubated with lysate of HEK293 cells transfected with Cav1.3 or Cav2.3, 4°C, 2 h; washed with 20 mM HEPES pH 7.4, 150 mM KOAc, 1 mM EDTA, 1 mM MgCl2, 5% glycerol, 0.1% Triton X-100; blots quantified as percent recovery
GST-Syn-1A (cytoplasmic domain a.a. 1–265), sequence (P32851 1-265): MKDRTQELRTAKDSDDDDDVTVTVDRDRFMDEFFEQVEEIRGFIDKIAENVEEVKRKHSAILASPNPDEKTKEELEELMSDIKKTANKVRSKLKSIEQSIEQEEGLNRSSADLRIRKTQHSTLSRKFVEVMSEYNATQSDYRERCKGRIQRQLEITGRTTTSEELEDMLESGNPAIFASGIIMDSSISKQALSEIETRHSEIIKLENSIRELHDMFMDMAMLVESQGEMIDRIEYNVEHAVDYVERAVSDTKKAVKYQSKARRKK

[4] = target: GST-Syn-3 (cytoplasmic domain a.a. 1–263) (UniProt Q08849); test: as above
[5] = target: Syn-1A expressed in HEK293 cells (UniProt P32851); test: co-IP; HEK293 cells co-transfected with Cav1.3 or Cav2.3 and Syn-1A or Syn-3; IP with anti-Syn-1A or anti-Syn-3 antibody; blots quantified as percent recovery of total lysate input
[6] = target: Syn-3 expressed in HEK293 cells (UniProt Q08849); test: as above
Syn-3 expressed in HEK293 cells, sequence (Q08849 whole entry): as the sequence (Q08849 whole entry, the tested form may be a part) above

Cav2.3 alpha1 subunit expressed in HEK293 cells, Q07652 1-2222 (natural protein), sequence (Q07652 whole entry): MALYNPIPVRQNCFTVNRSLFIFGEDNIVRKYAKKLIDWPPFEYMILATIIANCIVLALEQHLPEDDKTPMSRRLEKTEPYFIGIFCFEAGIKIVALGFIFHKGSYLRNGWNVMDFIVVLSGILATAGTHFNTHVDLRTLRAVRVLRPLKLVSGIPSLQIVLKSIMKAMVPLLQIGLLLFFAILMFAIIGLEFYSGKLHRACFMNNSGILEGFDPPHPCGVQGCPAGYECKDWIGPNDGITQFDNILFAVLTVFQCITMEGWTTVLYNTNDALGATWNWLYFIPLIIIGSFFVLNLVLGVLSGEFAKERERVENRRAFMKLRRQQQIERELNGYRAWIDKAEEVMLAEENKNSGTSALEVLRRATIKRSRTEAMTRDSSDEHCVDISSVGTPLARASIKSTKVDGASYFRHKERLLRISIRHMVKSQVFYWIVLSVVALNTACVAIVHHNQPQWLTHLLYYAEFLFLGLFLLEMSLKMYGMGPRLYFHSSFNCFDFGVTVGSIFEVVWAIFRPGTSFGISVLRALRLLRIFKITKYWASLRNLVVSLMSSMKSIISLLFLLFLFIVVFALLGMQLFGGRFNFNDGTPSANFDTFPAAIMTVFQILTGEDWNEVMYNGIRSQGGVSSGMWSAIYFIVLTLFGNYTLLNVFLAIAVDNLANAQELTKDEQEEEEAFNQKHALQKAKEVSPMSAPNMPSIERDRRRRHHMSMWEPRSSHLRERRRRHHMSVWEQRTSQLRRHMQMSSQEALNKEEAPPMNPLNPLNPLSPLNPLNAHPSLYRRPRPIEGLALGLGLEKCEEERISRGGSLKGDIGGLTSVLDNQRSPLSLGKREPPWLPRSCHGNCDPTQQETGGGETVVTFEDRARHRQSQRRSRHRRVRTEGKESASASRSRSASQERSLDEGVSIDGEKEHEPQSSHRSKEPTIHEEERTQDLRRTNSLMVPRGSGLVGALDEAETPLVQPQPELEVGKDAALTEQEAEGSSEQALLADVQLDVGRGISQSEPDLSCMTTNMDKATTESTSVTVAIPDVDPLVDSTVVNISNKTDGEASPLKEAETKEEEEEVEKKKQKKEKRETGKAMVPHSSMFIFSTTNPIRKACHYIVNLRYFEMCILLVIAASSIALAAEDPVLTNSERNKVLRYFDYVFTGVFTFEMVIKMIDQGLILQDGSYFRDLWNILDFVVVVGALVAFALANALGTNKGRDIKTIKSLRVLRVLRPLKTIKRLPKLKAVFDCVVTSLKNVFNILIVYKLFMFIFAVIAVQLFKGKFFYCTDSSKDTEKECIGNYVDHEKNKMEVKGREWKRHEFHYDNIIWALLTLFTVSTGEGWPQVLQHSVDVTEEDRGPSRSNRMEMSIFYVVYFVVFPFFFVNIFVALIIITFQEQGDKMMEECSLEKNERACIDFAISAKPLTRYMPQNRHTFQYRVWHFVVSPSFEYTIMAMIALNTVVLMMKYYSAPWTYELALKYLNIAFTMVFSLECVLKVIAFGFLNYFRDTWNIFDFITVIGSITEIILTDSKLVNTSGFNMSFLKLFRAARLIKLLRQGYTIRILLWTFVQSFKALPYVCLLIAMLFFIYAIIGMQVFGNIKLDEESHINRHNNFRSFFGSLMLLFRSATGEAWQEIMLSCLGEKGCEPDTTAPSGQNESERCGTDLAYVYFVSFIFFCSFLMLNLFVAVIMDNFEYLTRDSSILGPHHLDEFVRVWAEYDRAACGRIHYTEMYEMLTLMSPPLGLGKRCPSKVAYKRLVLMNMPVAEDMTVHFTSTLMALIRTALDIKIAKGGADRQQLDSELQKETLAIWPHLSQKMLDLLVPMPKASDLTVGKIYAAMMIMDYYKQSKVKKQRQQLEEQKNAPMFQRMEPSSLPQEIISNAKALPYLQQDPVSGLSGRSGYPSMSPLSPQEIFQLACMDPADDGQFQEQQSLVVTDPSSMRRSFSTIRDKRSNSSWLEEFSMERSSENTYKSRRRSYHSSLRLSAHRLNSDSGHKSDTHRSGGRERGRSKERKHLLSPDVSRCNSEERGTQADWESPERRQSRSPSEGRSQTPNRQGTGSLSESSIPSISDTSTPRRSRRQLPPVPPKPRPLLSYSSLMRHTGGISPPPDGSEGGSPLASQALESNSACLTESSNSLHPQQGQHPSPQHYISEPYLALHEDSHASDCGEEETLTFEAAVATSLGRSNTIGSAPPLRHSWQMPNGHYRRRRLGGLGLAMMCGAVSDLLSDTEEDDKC
Cav1.3 alpha1 pore-forming subunit (endogenous, INS-1 832/13 cells), P27732 1-2203 (natural protein), sequence (P27732 whole entry): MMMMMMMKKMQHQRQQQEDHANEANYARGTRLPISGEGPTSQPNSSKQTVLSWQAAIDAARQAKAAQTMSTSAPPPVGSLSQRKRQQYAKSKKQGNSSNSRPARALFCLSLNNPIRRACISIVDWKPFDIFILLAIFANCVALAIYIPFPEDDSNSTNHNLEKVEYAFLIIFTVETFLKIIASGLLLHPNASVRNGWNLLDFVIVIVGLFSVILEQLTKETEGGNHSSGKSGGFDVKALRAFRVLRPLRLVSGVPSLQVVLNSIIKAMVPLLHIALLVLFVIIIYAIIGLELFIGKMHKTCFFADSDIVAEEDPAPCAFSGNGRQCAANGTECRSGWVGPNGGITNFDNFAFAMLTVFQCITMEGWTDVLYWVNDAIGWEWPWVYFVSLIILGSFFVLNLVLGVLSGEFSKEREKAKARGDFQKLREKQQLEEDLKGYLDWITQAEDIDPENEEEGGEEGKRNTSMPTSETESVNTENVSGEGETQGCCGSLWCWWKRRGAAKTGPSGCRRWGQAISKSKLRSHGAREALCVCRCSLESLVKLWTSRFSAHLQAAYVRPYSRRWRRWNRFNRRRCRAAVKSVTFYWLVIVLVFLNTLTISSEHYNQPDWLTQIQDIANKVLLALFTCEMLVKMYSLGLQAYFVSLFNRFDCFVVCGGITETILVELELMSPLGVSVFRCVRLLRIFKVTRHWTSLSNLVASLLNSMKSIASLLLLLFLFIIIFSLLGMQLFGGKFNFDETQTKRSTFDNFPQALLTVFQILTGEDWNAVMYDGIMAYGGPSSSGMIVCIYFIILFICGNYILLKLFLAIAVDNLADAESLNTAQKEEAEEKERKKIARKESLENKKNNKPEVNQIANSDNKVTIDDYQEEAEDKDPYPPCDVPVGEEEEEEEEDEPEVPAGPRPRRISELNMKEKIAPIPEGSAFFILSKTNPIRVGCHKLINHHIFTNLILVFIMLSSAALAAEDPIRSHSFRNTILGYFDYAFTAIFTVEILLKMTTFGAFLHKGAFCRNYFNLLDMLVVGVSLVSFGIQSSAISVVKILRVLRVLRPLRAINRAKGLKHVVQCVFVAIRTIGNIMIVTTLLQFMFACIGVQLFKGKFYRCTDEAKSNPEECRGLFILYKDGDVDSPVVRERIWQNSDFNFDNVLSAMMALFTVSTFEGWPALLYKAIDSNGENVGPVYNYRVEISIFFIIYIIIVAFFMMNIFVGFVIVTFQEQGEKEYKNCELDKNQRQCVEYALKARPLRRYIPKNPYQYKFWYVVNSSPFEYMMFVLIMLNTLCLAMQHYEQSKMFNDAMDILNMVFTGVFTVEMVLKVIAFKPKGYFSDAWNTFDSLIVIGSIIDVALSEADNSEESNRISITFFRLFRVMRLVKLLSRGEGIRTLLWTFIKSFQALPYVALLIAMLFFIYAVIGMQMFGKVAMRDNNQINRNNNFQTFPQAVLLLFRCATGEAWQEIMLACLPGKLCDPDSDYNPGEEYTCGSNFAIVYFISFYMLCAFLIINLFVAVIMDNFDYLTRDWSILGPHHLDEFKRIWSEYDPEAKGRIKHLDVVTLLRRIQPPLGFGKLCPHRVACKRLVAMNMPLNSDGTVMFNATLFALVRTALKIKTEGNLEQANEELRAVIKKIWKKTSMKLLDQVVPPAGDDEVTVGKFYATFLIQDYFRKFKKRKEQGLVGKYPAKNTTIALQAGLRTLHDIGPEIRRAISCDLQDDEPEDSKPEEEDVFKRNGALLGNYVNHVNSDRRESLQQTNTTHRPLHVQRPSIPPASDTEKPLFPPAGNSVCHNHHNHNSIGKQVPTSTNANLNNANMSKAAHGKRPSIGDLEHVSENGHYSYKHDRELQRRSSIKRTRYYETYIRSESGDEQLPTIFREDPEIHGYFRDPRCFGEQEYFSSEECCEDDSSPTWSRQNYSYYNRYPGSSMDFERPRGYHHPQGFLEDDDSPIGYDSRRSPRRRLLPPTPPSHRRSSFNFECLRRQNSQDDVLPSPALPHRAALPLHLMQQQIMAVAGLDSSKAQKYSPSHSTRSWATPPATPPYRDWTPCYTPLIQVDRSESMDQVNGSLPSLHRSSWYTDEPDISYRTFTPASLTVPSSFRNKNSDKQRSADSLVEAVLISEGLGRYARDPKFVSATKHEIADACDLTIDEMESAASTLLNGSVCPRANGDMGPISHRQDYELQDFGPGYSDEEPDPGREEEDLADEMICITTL
Cav1.3 alpha1 subunit expressed in HEK293 cells, P27732 1-2203 (natural protein), sequence (P27732 whole entry): as above
Cav2.3 alpha1 pore-forming subunit (endogenous, INS-1 832/13 cells), Q07652 1-2222 (natural protein), sequence (Q07652 whole entry): as the sequence (Q07652 whole entry) above

| Substance | percent recovery of total lysate input, basal (0.8 mM glucose) [1] [%] | percent recovery of total lysate input, stimulated (16.7 mM glucose + 10 nM GLP-1) [1] [%] | percent recovery of total lysate input, basal (0.8 mM glucose) [2] [%] | percent recovery of total lysate input, stimulated (16.7 mM glucose + 10 nM GLP-1) [2] [%] | percent recovery of total lysate input [3] [%] | percent recovery of total lysate input [4] [%] | percent recovery of total lysate input [5] [%] | percent recovery of total lysate input [6] [%] |
| --- | --- | --- | --- | --- | --- | --- | --- | --- |
| Cav1.3 alpha1 pore-forming subunit (endogenous, INS-1 832/13 cells), P27732 1-2203 (natural protein) | 1.9 | 15 | 1.9 to 2 | 2 |  |  |  |  |
| Cav1.3 alpha1 subunit expressed in HEK293 cells, P27732 1-2203 (natural protein) |  |  |  |  | 25.7 | 5.3 | 18.1 | 7.8 |
| Cav2.3 alpha1 pore-forming subunit (endogenous, INS-1 832/13 cells), Q07652 1-2222 (natural protein) |  |  | 1.7 | 8.1 |  |  |  |  |
| Cav2.3 alpha1 subunit expressed in HEK293 cells, Q07652 1-2222 (natural protein) |  |  |  |  | 8.4 | 20.1 | 2.2 | 6.1 |
